Results on 3 substances are retold here after patent publication US20250002876.

Common to all, as to assay: cell_activity
Data set [1] has as its system MLT K350A S8P,C13R,K350A (Myotis lucifugus). Particulars: HEK293; integration >=10% GFP.
The subject of data set [2] is MLT K350A/D416A S8P,C13R,K350A,D416A (Myotis lucifugus). The settings on record: HEK293; integration >=10% GFP.
Data set [3] concerns ZnF-MLT transposase, non-covalent linker (Myotis lucifugus). The settings on record: HEK293 landing pad, amplicon-seq.
In data set [4] the test system is ZnF-MLT transposase fusion, covalent linker (Myotis lucifugus). The settings on record: amplicon-seq.

With “TTAACACTTGGATTGCGGGAAACGAGTTAAGTCGGCTCGCGTGAATTGCGCGTACTCCGCGGGAGCCGTCTTAACTCGGTTCATATAGATTTGCGGTGGAGTGCGGGAAACGTGTAAACTCGGGCCGATTGTAACTGCGTATTACCAAATATTTGTT / AATTATTTATGTACTGAATAGATAAAAAAATGTCTGTGATTGAATAAATTTTCATTTTTTACACAAGAAACCGAAAATTTCATTTCAATCGAACCCATACTTCAAAAGATATAGGCATTTTAAACTAACTCTGATTTTGCGCGGGAAACCTAAATAATTGCCCGCGCCATCTTATATTTTGGCGGGAAATTCACCCGACACCGTAGTGTTAA [MLT donor left and right ITRs]”, the activity (% GFP excision) in data set [1] and in data set [2] was more than 20 each time.
As for “Landing pad, single ZnF site next to TTAA”, the activity (% of reads on target) in data set [3] is 12; in data set [4] (HEK293 landing pad), 24.
Regarding “CTCCACTGTGGGGTGCCGCAGTGGAGATGACTTGTTTGTTAACGGCACTTTAACAG (double strand) [Landing pad, ZnF sites on both sides of TTAA]”, the activity (% of reads on target) is 29 in data set [3] and 42 in data set [4] (HEK293 plasmid landing pad, TTAA 15 bp from site).
